Assay results reported in patent US20180230200A1 (CITY OF HOPE, published 2018).

T1: UL128 expressed from MVA in BHK-21 cells (human cytomegalovirus, UniProt P16837 28-171)
T1 construct: whole, on cells
T1 sequence: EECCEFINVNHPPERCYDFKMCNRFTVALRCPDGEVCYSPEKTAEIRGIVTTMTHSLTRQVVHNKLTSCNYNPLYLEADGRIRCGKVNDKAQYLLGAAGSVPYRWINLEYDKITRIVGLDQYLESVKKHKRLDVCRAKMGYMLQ


Assays:
[1] = target: gH/gL/UL128/UL130/UL131A pentamer complex (PC) of HCMV strain TB40/E virus (human cytomegalovirus strain TB40/E); assay: cell-based or functional assay
[2] = target: gH/gL/UL128/UL130/UL131A pentamer complex (PC) of HCMV strain TR virus (human cytomegalovirus strain TR); assay: cell-based or functional assay
[3] = target: T1, UL128 expressed from MVA in BHK-21 cells; assay: intracellular FC, MVA-infected BHK-21
[4] = target: T2, UL130 expressed from MVA in BHK-21 cells (human cytomegalovirus, UniProt P16772 1-214); assay: intracellular FC, MVA-infected BHK-21
T2 construct: whole, on cells

[5] = target: T3, UL131A expressed from MVA in BHK-21 cells (human cytomegalovirus, UniProt F5HET4 19-129); assay: intracellular FC, MVA-infected BHK-21
T3 construct: whole, on cells

[6] = target: T4, UL128/UL130 co-expressed from MVA in BHK-21 cells (human cytomegalovirus, UniProt P16837 28-171; P16772 1-214); assay: intracellular FC, MVA-infected BHK-21
T4 construct: whole, on cells

[7] = target: T5, UL128/UL131A co-expressed from MVA in BHK-21 cells (human cytomegalovirus, UniProt P16837 28-171; F5HET4 19-129); assay: intracellular FC, MVA-infected BHK-21
T5 construct: whole, on cells

[8] = target: T6, UL130/UL131A co-expressed from MVA in BHK-21 cells (human cytomegalovirus, UniProt P16772 1-214; F5HET4 19-129); assay: intracellular FC, MVA-infected BHK-21
T6 construct: whole, on cells

[9] = target: T7, gH expressed from MVA in BHK-21 cells (human cytomegalovirus, UniProt P12824 24-743); assay: intracellular FC, MVA-infected BHK-21
T7 construct: whole, on cells

[10] = target: T8, gH/gL co-expressed from MVA in BHK-21 cells (human cytomegalovirus, UniProt P12824 24-743; P16832 31-278); assay: intracellular FC, MVA-infected BHK-21
T8 construct: whole, on cells

[11] = target: T9, gH/gL/UL128 co-expressed from MVA in BHK-21 cells (human cytomegalovirus, UniProt P12824 24-743; P16832 31-278; P16837 28-171); assay: intracellular FC, MVA-infected BHK-21
T9 construct: whole, on cells

[12] = target: T10, gH/gL/UL130 co-expressed from MVA in BHK-21 cells (human cytomegalovirus, UniProt P12824 24-743; P16832 31-278; P16772 1-214); assay: intracellular FC, MVA-infected BHK-21
T10 construct: whole, on cells

[13] = target: T11, gH/gL/UL131A co-expressed from MVA in BHK-21 cells (human cytomegalovirus, UniProt P12824 24-743; P16832 31-278; F5HET4 19-129); assay: intracellular FC, MVA-infected BHK-21
T11 construct: whole, on cells

[14] = target: T12, gH/gL/UL128/UL130 co-expressed from MVA in BHK-21 cells (human cytomegalovirus, UniProt P12824 24-743; P16832 31-278; P16837 28-171; P16772 1-214); assay: intracellular FC, MVA-infected BHK-21
T12 construct: whole, on cells

[15] = target: T13, gH/gL/UL128/UL131A co-expressed from MVA in BHK-21 cells (human cytomegalovirus, UniProt P12824 24-743; P16832 31-278; P16837 28-171; F5HET4 19-129); assay: intracellular FC, MVA-infected BHK-21
T13 construct: whole, on cells

[16] = target: T14, gH/gL/UL130/UL131A co-expressed from MVA in BHK-21 cells (human cytomegalovirus, UniProt P12824 24-743; P16832 31-278; P16772 1-214; F5HET4 19-129); assay: intracellular FC, MVA-infected BHK-21
T14 construct: whole, on cells

[17] = target: T15, gH/gL/UL128/UL130/UL131A pentamer complex expressed from MVA-PC in BHK-21 cells (human cytomegalovirus, UniProt P12824 24-743; P16832 31-278; P16837 28-171; P16772 1-214; F5HET4 19-129); assay: FC, biotinylated NAb titrated on MVA-PC-infected BHK-21 (cell surface PC)
T15 construct: whole, on cells

[18] = target: T15, gH/gL/UL128/UL130/UL131A pentamer …; assay: FC competition, MVA-PC BHK-21; unlabelled row Ab; competitor: biotinylated 1B2
[19] = target: T15, gH/gL/UL128/UL130/UL131A pentamer …; assay: FC competition, MVA-PC BHK-21; unlabelled row Ab; competitor: biotinylated 12E2
[20] = target: T15, gH/gL/UL128/UL130/UL131A pentamer …; assay: FC competition, MVA-PC BHK-21; unlabelled row Ab; competitor: biotinylated 13B5
[21] = target: T15, gH/gL/UL128/UL130/UL131A pentamer …; assay: FC competition, MVA-PC BHK-21; unlabelled row Ab; competitor: biotinylated 21F6
[22] = target: T15, gH/gL/UL128/UL130/UL131A pentamer …; assay: FC competition, MVA-PC BHK-21; unlabelled row Ab; competitor: biotinylated 18F10
[23] = target: T15, gH/gL/UL128/UL130/UL131A pentamer …; assay: FC competition, MVA-PC BHK-21; unlabelled row Ab; competitor: biotinylated 54E11

Binder	IC50, neutralization of TB40/E infection of ARPE-19 [1] [µg/mL]	IC50, neutralization of TB40/E infection of HUVEC [1] [µg/mL]	IC50, neutralization of TB40/E infection of MRC-5 [1] [µg/mL]	IC50, neutralization of TR infection of ARPE-19 [2] [µg/mL]	IC50, neutralization of TR infection of HUVEC [2] [µg/mL]	IC50, neutralization of TR infection of MRC-5 [2] [µg/mL]	binding result [3]	binding result [4]	binding result [5]	binding result [6]	binding result [7]	binding result [8]	binding result [9]	binding result [10]	binding result [11]	binding result [12]	binding result [13]	binding result [14]	binding result [15]	binding result [16]	other results
12E2 (antibody, V domains shown, also called NAb 12E2) VH: EVKLVESGGGLVQPGGSLKLSCATSGFTFSDYYMFWVRQTPEKKLEWVAYISNGGGSTYYPDTVKGRFTISRDNDKNTLYLQMSRLKSDDTALYYCVRPKRDFQYLYAMDYWGQGTSVTVSS VL: DIVLTQSPASLAVSLGQRATISCRASKSVSTSGYSYMHWYQQKPGQSPKLLIYLASNLESGVPARFSGSGSGTDFTLNIHPVEDEDAATYYCQHSRELPWTFGGGTKLEIK	0.0037	0.006	> 25	0.0031	0.0042	> 25	no binding	no binding	no binding	no binding	no binding	no binding	no binding	no binding	no binding	no binding	no binding	no binding	no binding	no binding	IC50, inhibition of TB40/E cell-to-cell spread in ARPE-19 [1]: 15 µg/mL; IC50, neutralization of TB40/E infection of CTB [1]: 0.0721 µg/mL; IC50, inhibition of TR cell-to-cell spread in ARPE-19 [2]: 17 µg/mL; EC50 [17]: 1.1 nM; Binding Inhibition (%) [18]: 100%; Binding Inhibition (%) [19]: 100%; Binding Inhibition (%) [20]: 0%; Binding Inhibition (%) [21]: 0%; Binding Inhibition (%) [22]: 0%; Binding Inhibition (%) [23]: 0%
1B2 (antibody, V domains shown, also called NAb 1B2) VH: EVQLVESGGVLVKPGGSLKLSCAASGFTFSDYYMYWVRQTPEKRLEWVATISDDGNYTNYPDSVKGRFTISRDNAKNNLYLQMSSLKSEDTAMYYCARGWLLPVFAYWGQGTLVTVSA VL: DIVLTQSPATLSVTPGDSVSLSCRASQSIGNNLHWYQQKSHESPRLLIKYTSQSISGIPSRFSGSGSGTDFTLNINSVETEDFGVYFCQQSNRWPWTFGGGTKLEIK	0.0006	0.0005	> 25	0.0003	0.0007	> 25	no binding	no binding	no binding	no binding	no binding	no binding	no binding	no binding	no binding	no binding	no binding	no binding	no binding	no binding	IC50, inhibition of TB40/E cell-to-cell spread in ARPE-19 [1]: 1 µg/mL; IC50, neutralization of TB40/E infection of CTB [1]: 0.0126 µg/mL; IC50, inhibition of TR cell-to-cell spread in ARPE-19 [2]: 1.4 µg/mL; EC50 [17]: 0.32 nM; Binding Inhibition (%) [18]: 100%; Binding Inhibition (%) [19]: 100%; Binding Inhibition (%) [20]: 0%; Binding Inhibition (%) [21]: 0%; Binding Inhibition (%) [22]: 0%; Binding Inhibition (%) [23]: 0%
4A3 (antibody, V domains shown, also called NAb 4A3) VH: QVQLQQPGPELVRPGASVKLSCKASGYTFTIYWMNWVKQRPGQGLEWIGMIDPSDSETHYNQMFKDKATLTVDKSSSTAYMQLSSLTSEDSAVYYCASSGTGAYWGQGTLLTVSA VL: not shown	0.0802	0.0464	> 25	0.0446	0.0102	> 25	no binding	no binding	no binding	no binding	no binding	no binding	no binding	no binding	no binding	no binding	no binding	no binding	no binding	no binding	
